Results: US20220381793A1, “COMPOSITIONS AND METHODS FOR IDENTIFYING MHC-II BINDING PEPTIDES” (priority 2021, published 2022)

Molecular target: “empty” DR4-LZ (DRA*01:01/DRB1*04:01 ectodomains with Jun/Fos leucine zippers, non-covalent heterodimer displayed on yeast through Aga2p) (human)

Substance: S862-888 (printed “5862-888”) (from UniProt P0DTC2 862-878) (peptide)
- % competition: 75%
